Source: the supplement of paper PMC9233669
Fewer inactive variants are shown than the library holds.

How the values were obtained:
[1] = test system: biotinyl-Phe-oxazolone; experiment: self-aminoacylation, catalytic enhancement (BFO) (fold over background); higher = more active; k-Seq, kA / k0A0; sequences stand for … in GGGAAUGGAUCCACAUCUACGAAUUC…UUCACUGCAGACUUGACGAAGCUG
Outline: (§1)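 Each biotinyl-aminoacyl-oxazolone, at 2–1250 μM, was incubated with mutagenized RNA pools (0.43 μM) carrying a 21-nt variable region. The 50 μL reactions contained HEPES/NaCl/KCl/MgCl2/CaCl2 buffer with 5% acetonitrile at pH 6.9–7.0 and ran for 90 minutes at room temperature. After streptavidin capture, RNA was measured by qPCR in triplicate and by Illumina sequencing, and catalytic enhancement was calculated as median kA over the uncatalyzed rate from a pseudo-first-order fit of per-sequence fraction reacted.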

[2] = test system: biotinyl-Ile-oxazolone; experiment: self-aminoacylation, catalytic enhancement (BIO) (fold over background); higher = more active; k-Seq, kA / k0A0; sequences stand for … in GGGAAUGGAUCCACAUCUACGAAUUC…UUCACUGCAGACUUGACGAAGCUG
Outline: as §1

[3] = test system: biotinyl-Met-oxazolone; experiment: self-aminoacylation, catalytic enhancement (BMO) (fold over background); higher = more active; k-Seq, kA / k0A0; sequences stand for … in GGGAAUGGAUCCACAUCUACGAAUUC…UUCACUGCAGACUUGACGAAGCUG
Outline: as §1

[4] = test system: biotinyl-Val-oxazolone; experiment: self-aminoacylation, catalytic enhancement (BVO) (fold over background); higher = more active; k-Seq, kA / k0A0; sequences stand for … in GGGAAUGGAUCCACAUCUACGAAUUC…UUCACUGCAGACUUGACGAAGCUG
Outline: as §1

[5] = test system: biotinyl-Leu-oxazolone; experiment: self-aminoacylation, catalytic enhancement (BLO) (fold over background); higher = more active; k-Seq, kA / k0A0; sequences stand for … in GGGAAUGGAUCCACAUCUACGAAUUC…UUCACUGCAGACUUGACGAAGCUG
Outline: as §1

[6] = test system: biotinyl-Trp-oxazolone; experiment: self-aminoacylation, catalytic enhancement (BWO) (fold over background); higher = more active; k-Seq, kA / k0A0; sequences stand for … in GGGAAUGGAUCCACAUCUACGAAUUC…UUCACUGCAGACUUGACGAAGCUG
Outline: as §1

Sequence	self-aminoacylation [1]	self-aminoacylation [2]	self-aminoacylation [3]	self-aminoacylation [4]	self-aminoacylation [5]	self-aminoacylation [6]
AUUACCCUGUUCAUCUAGUGA [Fam2.1 aminoacylation ribozyme variant]	86.2	6.08	16.4	7.03	14.8	17.3
AUUACCCUGUUCCUCGAGUGA [Fam2.1 aminoacylation ribozyme variant]	11.2	2.27	3.86	2.68	3.54	4.81
AUUACCCUGUUUAUCGAGUGA [Fam2.1 aminoacylation ribozyme variant]	62.5	5.5	12.6	6.02	12.3	15.7
AUUACCCUUGUAAUCGAGUGA [Fam2.1 aminoacylation ribozyme variant]	127	6.93	16.4	6.66	16.3	21.1
AUUACCCUUGUCAGCGAGUGA [Fam2.1 aminoacylation ribozyme variant]	28.6	2.94	5.08	3.3	6.14	6.54
AUUACCCUUGUCAUCGAGGGA [Fam2.1 aminoacylation ribozyme variant]	2.14	1.16	1.28	0.957	1.27	1.3
AUUACCCUUGUCAUCGAGUGA [Fam2.1 aminoacylation ribozyme variant]	21.8	3.19	5.94	3.54	5.88	7.65
AUUACCCUUGUCAUCGGGUGA [Fam2.1 aminoacylation ribozyme variant]	45.3	4.14	8.35	4.39	9.03	9.41
AUUACCCUUGUCAUGGAGUGA [Fam2.1 aminoacylation ribozyme variant]	22.1	2.87	4.62	2.76	5.03	5.67
AUUACCCUUGUCCUCGAGUGA [Fam2.1 aminoacylation ribozyme variant]	32.2	2.68	4.9	3.08	4.77	5.17
AUUACCCUUGUCGUCGAGUGA [Fam2.1 aminoacylation ribozyme variant]	2.62	1.13	1.06	1.11	1.05	0.966
AUUACCCUUGUCUUCGAGUGA [Fam2.1 aminoacylation ribozyme variant]	18.9	2.64	4.46	2.73	4.49	6.14
AUUACCCUUGUGAUCGAGUGA [Fam2.1 aminoacylation ribozyme variant]	50.1	3.2	7.15	3.53	7.77	9.16
AUUACCCUUUUCAUCGAGUGA [Fam2.1 aminoacylation ribozyme variant]	25.2	2.88	6.39	3.68	6.32	7.27
AUUACCGUGGUCAGCGAGUGA [Fam2.1 aminoacylation ribozyme variant]	19.3	3.02	4.54	3.1	4.64	6.24
AUUACCGUGGUCGUCGAGUGA [Fam2.1 aminoacylation ribozyme variant]	2.81	1.2	1.09	1.06	1.18	0.591
AUUACCGUGUUCAUCGAGUGA [Fam2.1 aminoacylation ribozyme variant]	20.2	3.72	6.78	3.92	6.23	8.08
AUUACCUAGGUCAUCGAGUGA [Fam2.1 aminoacylation ribozyme variant]	6.96	4.2	6.35	4.01	7.92	7.91
AUUACCUCGGUCAUCGAGUGA [Fam2.1 aminoacylation ribozyme variant]	20.8	2.82	5.12	2.87	5.32	6.06
AUUACCUGGGUCAUCGAGUGA [Fam2.1 aminoacylation ribozyme variant]	5.6	2.83	5.07	3.05	4.74	5.91
AUUACCUUGGCCAUCGAGUGA [Fam2.1 aminoacylation ribozyme variant]	2.01	1.95	2.38	1.62	2.5	3.26
AUUACCUUGGUCAUCCAGUGA [Fam2.1 aminoacylation ribozyme variant]	22.5	3.16	4.51	2.84	4.83	5.48
AUUACCUUGGUCAUCGAAUGA [Fam2.1 aminoacylation ribozyme variant]	0.902	1.14	0.77	0.945	1.1	0.837
AUUACCUUGGUCAUCGAGCGA [Fam2.1 aminoacylation ribozyme variant]	1.02	1.55	1.5	1.83	1.74	1.57
AUUACCUUGGUCAUCUAGUGA [Fam2.1 aminoacylation ribozyme variant]	47.8	4.49	9.34	4.72	8.77	11.2
AUUACCUUGGUCAUGGAGUGA [Fam2.1 aminoacylation ribozyme variant]	4.26	2.97	4.16	2.72	4.42	5.57

Sequence	self-aminoacylation [1]	self-aminoacylation [2]	self-aminoacylation [3]	self-aminoacylation [4]	self-aminoacylation [5]	self-aminoacylation [6]
AUUACCUUUGUCAUCGAGUGA [Fam2.1 aminoacylation ribozyme variant]	20	3.25	5.22	3.06	6.05	6.87
AUUACGCCGGUCAUCGAGUGA [Fam2.1 aminoacylation ribozyme variant]	81.9	3.94	7.36	4.89	7.93	8.28
AUUACGCUGGGCAUCGAGUGA [Fam2.1 aminoacylation ribozyme variant]	43.1	3.69	7.19	4	7.76	6.96
AUUACGCUGGUCACCGAGUGA [Fam2.1 aminoacylation ribozyme variant]	47.5	3.71	6.73	4.31	7.46	7.92
AUUACGCUGGUCAUCGAGUGU [Fam2.1 aminoacylation ribozyme variant]	2.57	2.34	2.96	2.64	2.9	3.22
AUUACGCUGGUCAUCGCGUGA [Fam2.1 aminoacylation ribozyme variant]	134	7.32	12.2	9.87	11.7	15.4
AUUACGCUGGUCAUCUAGUGA [Fam2.1 aminoacylation ribozyme variant]	27.3	3.21	4.83	2.89	5.42	6.02
AUUACUCAGGUCAUCGAGUGA [Fam2.1 aminoacylation ribozyme variant]	13.2	2.41	3.58	2.57	3.72	4.11
AUUACUCUGAUCAUCGAGUGA [Fam2.1 aminoacylation ribozyme variant]	19.3	2.93	5.85	2.95	5.35	6.7
AUUACUCUGGGCAUCGAGUGA [Fam2.1 aminoacylation ribozyme variant]	41.2	3.71	6.39	3.11	6.57	7.68
AUUACUCUGGUAAUCGAGUGA [Fam2.1 aminoacylation ribozyme variant]	45.5	3.66	7.65	3.46	8.85	9.06
AUUACUCUGGUCAUAGAGUGA [Fam2.1 aminoacylation ribozyme variant]	20.8	3.03	4.99	2.79	5.04	6.05
AUUACUCUGGUCAUCGAGAGA [Fam2.1 aminoacylation ribozyme variant]	1.03	0.907	0.867	0.908	0.713	0.523
AUUACUCUGGUCAUCGAGUCA [Fam2.1 aminoacylation ribozyme variant]	1.04	1.09	0.944	0.978	0.928	0.628
AUUACUUUGGUCAUCGAGUGA [Fam2.1 aminoacylation ribozyme variant]	25.8	3.55	6.07	3.57	7.1	8.06
AUUAGCCGGGUCAUCGAGUGA [Fam2.1 aminoacylation ribozyme variant]	40.5	3.91	6.22	4.51	6.37	7.69
AUUAGCCUGGCCAUCGAGUGA [Fam2.1 aminoacylation ribozyme variant]	26.4	3.83	5.44	3.54	4.51	6.06
AUUAGCCUGGUCAGCGAGUGA [Fam2.1 aminoacylation ribozyme variant]	9.96	3.09	3.65	3.39	5.47	4.85
AUUAGCCUGGUCAUCGAGUAA [Fam2.1 aminoacylation ribozyme variant]	1.85	1.52	1.31	1.51	1.57	0.949
AUUAGCCUGGUCAUCGAGUUA [Fam2.1 aminoacylation ribozyme variant]	1.15	1.36	1.41	1.24	1.27	0.867
AUUAGCCUGGUCAUUGAGUGA [Fam2.1 aminoacylation ribozyme variant]	62.6	4.89	9.25	5.01	10.3	12.3
AUUAGCCUGGUCUUCGAGUGA [Fam2.1 aminoacylation ribozyme variant]	35.9	3.5	5.53	3.28	5.63	6.87
AUUAGCCUGGUUAUCGAGUGA [Fam2.1 aminoacylation ribozyme variant]	74.4	5.67	11.3	5.37	12.2	13.7
AUUAGCGUGGUCAUCGAGUGA [Fam2.1 aminoacylation ribozyme variant]	13.5	2.8	3.55	3.1	4.67	5
AUUAUCAUGGUCAUCGAGUGA [Fam2.1 aminoacylation ribozyme variant]	10.8	3.56	6.24	3.44	6.75	8.2
